20 sequences from the DeepSol protein solubility set can be followed below.

The data set is described as follows: soluble on expression in E. coli; label from the status in PepcDB or PDB records.
Consider “AIASDKYIGDSHLEETGEEKQDSQEKEAVTPEKAEEQKLKAKYPNLGQKPGGSDFLMKRLQKGQKYFDSGDYNMAKAKIKNKQLPCAGPDKNLVTGDHIPTPQDLPQRKSSLVTSKLAGHVEDLHHV”, for which the “soluble on expression in E. coli” value is reported as “soluble”. For “MSLSSNRGVVYIGPGKVEVQDIADPKLEAPDRRKIAHGVILKVVSTNICGSDQHMVRGRTTAEPGLILGHEITGEVIEKGADVEMLEIGDIVSVPFNVACGRCRCCREGDTGVCLTVNPSRAGGAYGYVDMGGWIGGQARYVMVPYADFNLLKFPDRDRAMAKIRDLTMLSDILPTGFHGAWKAGVGVGSVVYVAGAGPVGLAAAASARILGAAVVMVGDFNKERLEHARKVGFEPVDLSKGDDLPEMIAQITGTPEVDAAIDAVGFEARGHSGGEQPAIVLNQMMQITRAAGQIGIPGLYVTEDPGAVDDAARHGSLSMRFGLGWAKAQSFHTGQTPVLKYNRQLMQAILHDRLPIADIVNATVIPLDQAVQGYESFDRGVAKKFVLDPHGMLAAEGHHHHHH” the value was “not soluble”; for “MGSDKIHHHHHHMITTTIFPGRYVQGAGAINILEEELSRFGERAFVVIDDFVDKNVLGENFFSSFTKVRVNKQIFGGECSDEEIERLSGLVEEETDVVVGIGGGKTLDTAKAVAYKLKKPVVIVPTIASTDAPCSALSVIYTPNGEFKRYLFLPRNPDVVLVDTEIVAKAPARFLVAGMGDALATWFEAESCKQKYAPNMTGRLGSMTAYALARLCYETLLEYGVLAKRSVEEKSVTPALEKIVEANTLLSGLGFESGGLAAAHAIHNGLTVLENTHKYLHGEKVAIGVLASLFLTDKPRKMIEEVYSFCEEVGLPTTLAEIGLDGVSDEDLMKVAEKACDKNETIHNEPQPVTSKDVFFALKAADRYGRMRKNLT”, “soluble”.

For “MSDIKNITKLQIEDKGKKYSLYSLKKLSQELGKDVTRLPYSIRVLLENQLRNIDGYKVKEDDMHKVLDWDAKASSRPEIPHMPARVVMQDFTGVPAVVDLAAMRKAIKDAGGDADKINPLVDTAMVIDHSVQVDFYGTKTALAQNVAKEFERNGERYSLLKWAQKAFDDFIVVPPGMGIIHQVNLEYLAKGALVKNINGEDVIYPDTLVGTDSHTTMINGVGVVGWGVGGIEAEAVMLGQPYYMVLPDVVGVKFTGKLKTGVTATDLVLKVTEVLRKHGVVGKFVEYYGEGLESLSLPDRATIANMAPEYGATIGFFPVDEVTLDFFNNTNRSELVDAAREMYKEQLLFRENPAEEPEYSSIVEIDLSEVESNLAGPKRPQDRVAFHDMKKAFAEALVHEQGLHGFGLTDEQLQKLAEVKGLNERITHGSVAIAAITSCTNTSNPSLLLGAGLLAKKANEKGLKVKPFVKTSLAPGSQVVTQYLEKANLLPELENLGFNLVGYGCTTCIGNSGPLDEPVVEAINEADLIVASVSSGNRNFEGRINPHVKANYLASPIHVVAYALAGTVDFDPVEDAIGKDAEGNDVYLADIWPTTEEIAAIQSHVINSDMFKKAYATVLDGTEDWQKLKAPEGKLYEFDSSSTYIQCPNFFEKFAEGNDDLDIKGARTLLMLGDSVTTDHISPAGAIPEEYPAGQYLKSHGVEKKDFNSYGSRRGNHEVMMRGTFANIRIRNLLLDNVEGGFTKYHLDGSQQYVFDAAMKYKEKGIPLVILAGKEYGTGSSRDWAAKGTFLLGVKAVIAESYERIHRSNLVGMGVLPLEYVNGQNAKTLGLDGTEMFNIKNLNNIKPRQIVIVEAVHPKTAHTTTFEALARLDADVDVDYLKNGGILQTVLKDIMGDKKESKSTQSTTSKGCGSADTSSETSCPFAKIANFFKKLFK”, the “soluble on expression in E. coli” value is reported as “not soluble”. “MEEQREALRKIIKTLAVKNEEIQSFIYSLKQMLLNVEANSAKVQEDLEAEFQSLFSLLEELKEGMLMKIKQDRASRTYELQNQLAACTRALESSEELLETANQTLQAMDSEDFPQAAKQIKDGVTMAPAFRLSLKAKVSDNMSHLMVDFAQERQMLQALKFLPVPSAPVIDLAESLVADNCVTLVWRMPDEDSKIDHYVLEYRRTNFEGPPRLKEDQPWMVIEGIRQTEYTLTGLKFDMKYMNFRVKACNKAVAGEFSEPVTLETPAFMFRLDASTSHQNLRVDDLSVEWDAMGGKVQDIKAREKDGKGRTASPINSPARGTPSPKRMPSGRGGRDRFTAESYTVLGDTLIDGGEHYWEVRYEPDSKAFGVGVAYRSLGRFEQLGKTAASWCLHVNNWLQVSFTAKHANKVKVLDAPVPDCLGVHCDFHQGLLSFYNARTKQVLHTFKTRFTQPLLPAFTVWCGSFQVTTGLQVPSAVRCLQKRGSATSSSNTSLT”: the “soluble on expression in E. coli” value was “soluble”. For “MAVTVDDIKLSLRIDVTEDDPMIKSYLDAAKDYVQTAVSKNEDLTIYKQYDFAVSLLTQFWYQNRVTDMTKTPYQVVSMIQQLRGLVAG” the value was “not soluble”; for “MKYSKEYDEKTVVKINDVKFGEGFTIIAGPCSIESREQIMKVAEFLAEVGIKVLRGGAFKPRTSPYSFQGYGEKALRWMREAADEYGLVTVTEVMDTRHVELVAKYSDILQIGARNSQNFELLKEVGKVENPVLLKRGMGNTIQELLYSAEYIMAQGNENVILCERGIRTFETATRFTLDISAVPVVKELSHLPIIVDPSHPAGRRSLVIPLAKAAYAIGADGIMVEVHPEPEKALSDSQQQLTFDDFLQLLKELEALGWKG”, “soluble”; for “AIANFNDAKNEILQVLSKTERQHLPKLLEWIKTSDDLDDILVDNQSVILHSIAEDLRACLPMEAMAPSETLAMQKTQQKAHPTVHVDAFLYDDETVDSLCEEGKMSRTYCLNCGSHRTAPLEFISHSFSIPELQFLFHNVLPELTGKLVLDVGSRLGAVLFGGYLYSAASQLVGVEMSSEFVKLQSMAVEKYGFSDRIQVIHADIRSQIALVQKADVLIMNNVFEYFMEPRDQMQAWLYISQNFRKKGALLVTVPSIQEALGLLQDAAFLETLSLSQWIEEIPVDYSVYLKNDTDPDSLKQIHLYRVL”, “soluble”. The value for “MGSDKIHHHHHHMILQVQPAKLIKRYKRFLADIELNCGEETTIHCANTGAMKGCAEPDDTVWYTTSTNTKRKYPFSWEITQSQDDHFICVNTLRANQLVEEALHLDLIKELSGFNELKREVKYGNENSRVDFLATYNNAPDTYIEVKSVTLLESGHGYFPDAVTTRGQKHLRELMDMVAQGHKAVLLFAVLHSGINDISAASHVDPIYAKLLKEARLAGVEIIAYKAGFSLQLGELDVKLVEKIPFIER” was “not soluble”.

With “MKKTIISTLVIGLVSGCSNTNLLKDNLASEQSVINLSKSSNEAKSRNIEFLSGAYLSERKVPKHDIKFSGKYVEFESKSPIELIDVLDGLSKQYNIQYVFSDELEDENSEENKKSSGSSSAKKIKYSGPLAGFFDYLSSAYNMHFEFGHNNLVKAYHYKNQVFNLQQYFDDNKFSSSMQIGGTSGTSSGLKGTADTAIESNSWEKIDEFLSASLGETGKFTIFEDYSLVTVKARPDKFLLLHTFFDKLINESKMQIAVDYRVVSLSEERLNQLAAKFGIENAGKYSITSDMVDAISLSQVGGGLGASYRSASARLDAVVNELSQEVMHEGHFIGIPNRVMPLNVTTNSKYISSIETTKDTNTDEETRTVKVSDLVTGFSMMVMPKILDDGRIQISSGFSRKQLVSIGTAQGITLPTVDENESMNTVTMNPGEVRLAMLFKDNYIQNSNGVQLLGGGTENKKSARYIAVLVGASSYKTNDLASNRVNIYD”, the “soluble on expression in E. coli” value is listed as “not soluble”. The value for “MPYVFLLSPQLEIASQWDGYYEKTFEVSDHVHKEIILKVSGQTVLITGSGSGLGRLMAFEFGKLGARLVLWDINEQGNKETLKELEAMGVEVWTCNIFHIYRFIR” was “not soluble”; that for “MSLGSDIPTLRAALARSDAWLVACFCAAWCDTCQQYRPKLLELARARPGHTFAWIDIEDHPDLLGEEDVENFPTLLVQAHGKVLFYGPMLPHIGHLERLLDSLDPQGREGHHHHHH” was “soluble”; that for “TSLFAQEIRLSKRHEEIVSQRLMLLQQMENKLGDQHTEKASQLQTVETAFKRNLSLLKDIEAAEKSLQTRIHPLPRPEVVSLETRYWASV” was “soluble”. The value for “SKHSNKPYDSFQDELEDYIKVQKARGLEPKTCFRRMRGEYLESCGYREEFDSRPRYRMFDQRLPSGTNHSYPRSCSSSQTEDRVPQWLPAHDKIRLNSLSYCQFTRDGFSEKPVPLNLSQQEYNCGSYSVESVVHKRLCSEHSTIDPQVSHRQMHQKRKKHVEEGREKQEERPKHERKRSSEEMDLNKHRSIQRKKTKAETETVQDGTEKLKNRKEKKTRDVSSKKEDRKRRKEKKEQGEERTEEEMLWDQSILGF” was “soluble”; that for “MVAQSKILLYYKFTPIADPKAMMLWQRDMCELLGLKGRILISEHGINGTVGGDMDACKRYVRKMREYPGFRGTEFKWSDGGAEDFPKLSVKVRDEIVAFGAPGELKVDEKGVIGGGVHLKPEEVNKLVEERGDDVVFFDGRNAMEAQIGKFKNAVVPDVRTTHDFIRELESGKYDWMKDKPVVSYCTGGIRCEILSSLMKNRGFKEIYQIDGGIVRYGEKYGNDGLWEGSLYVFDRRMHMEFGNGVQDPGFIQLGHCVQCGAPTNKFEHCINEDECRELVLMCPDCYENPATRNCGREHCKEVAAEAAAAAAVLEHHHHHH” was “soluble”; that for “MGSDKIHHHHHHMVRLWLMYKNKEEQANMQVEKDVIYDSAYNLAADLYVPDEANGGAIVYAHGGGWFRGDKENESDLGKYFADAGYLFTIPNFRLAPKYLYPTAQNDFDHFINWLLASPYDFDRERLGLLGASSGGTMVLQNSLASGYPLVAWSPVVDFANWVQKNQMVKASVDGKKELGLTEIHEIHDSFYKYFVQTYLGGLDPRLLTAVNPTNHLTDQLGPALLFNSADELMPLPSALHFLQQAAMFGRDIGLHVVPGTGHARDYTSFALPETKRFFDHHLFTTVEDKTLNKATD” was “not soluble”.

In the case of “MGSDKIHHHHHHMNILFVSDLGSLGGGETSLFNLINEFASDNKKYNINNFLMCKTEGKLVDKCRGINVPCKVFDFKAAFKSFKFREISKAIKVIKEFLYSNNIDVIQCNEWSSAVLFSIISKVSSKNCKIIWICHGQWYKFNLIKRVLVNSLINRIISVSESVQNNLIINKLNKRKLLKQNLGIDLDRFRLGNGDKLREELHIQKEDKVLGVIARFQPIKGQKLVIEAARDIVEAGYKNYKFLLVGDSIFNNPKDSMYKNEVIEMIKEYKLQKNVLILGERNDVPDILALLDALIVPSINESFGMVVVEAFAAGCPVISTPCDGPMEIIKNGYSGVIINERNSENLKDAITDLMKEETDLEMMKINSMKESKKYDISNIAQFYCKQYALLCK”, the “soluble on expression in E. coli” value is “not soluble”. The value for “MGHHHHHHSHMMSPGLLLKPWWGGAQSEMGRNGMLEGCSVMSVGASRLGEGRVRPRAHSRRPVTRPRWRAAGPCTGTCQGGSHSRTLVLRLKAVSTTPTSANDLVQIKFRRDGGNRVVEALNLSEKRKDRKALCFSQSLHLQGEEIELTALSRSFQLRNVYFMISNI” was “not soluble”; that for “MGSDKIHHHHHHAADWQLEKVVELSRHGIRPPTAGNREAIEAATGRPWTEWTTHDGELTGHGYAAVVNKGRAEGQHYRQLGLLQAGCPTAESIYVRASPLQRTRATAQALVDGAFPGCGVAIHYVSGDADPLFQTDKFAATQTDPARQLAAVKEKAGDLAQRRQALAPTIQLLKQAVCQADKSCPIFDTPWQVEQSKSGKTTISGLSVMANMVETLRLGWSENLPLSQLAWGKITQARQITALLPLLTENYDLSNDVLYTAQKRGSVLLNAMLDGVKPEANPNVRWLLLVAHDTNIAMVRTLMNFSWQLPGYSRGNIPPGSSLVLERWRNAKSGERYLRVYFQAQGLDDLRRLQTPDAQHPMLRQEWHQPGCRQTDVGTLCPFQAAITALGQRIDRSSAPAVAMVLP” was “not soluble”.

Turning to “MAGSGVAKQIFALDFEIFGRVQGVFFRKHTSHEAKRLGVRGWCMNTRDGTVKGQLEAPMMNLMEMKHWLENNRIPNAKVSKAEFSQIQEIEDYTFTSFDIKH”, the “soluble on expression in E. coli” value was “soluble”.
